In patent US20230285509A1, “INTERFERON-BASED DISEASE TREATMENT METHOD” (XIAMEN AMOYTOP BIOTECH CO., LTD., priority 2019, published 2023):
Several values for one entry are separate records, joined by “and”; a condition that tells them apart may be missing. Equal entries are not always repeated.

B1: deglycosylated mIFN-α4: recombinant mouse interferon α4 expressed in Pichia pastoris, glycosyl groups removed with glycosidase (protein, UniProt P07351 25-186, looked up)
Interferon alpha-4: CDLPHTYNLGNKRALTVLEEMRRLPPLSCLKDRKDFGFPLEKVDNQQIQKAQAILVLRDLTQQILNLFTSKDLSATWNATLLDSFCNDLHQQLNDLKACVMQEPPLTQEDSLLAVRTYFHRITVYLRKKKHSLCAWEVIRAEVWRALSSSTNLLARLSEEKE
modifications: deglycosylated
notes: recombinant mouse interferon α4 expressed in Pichia pastoris, glycosyl groups removed with glycosidase
B2: PEG-mIFN-α4: PEGylated recombinant mouse interferon α4: deglycosylated mIFN-α4 modified with 40 kD Y-type polyethylene glycol succinimide ester (YPEG-NHS) (protein, UniProt P07351 25-186, looked up)
Interferon alpha-4: B1 Interferon alpha-4
modifications: 40 kD Y-type PEG, deglycosylated

Tests used:
liver cancer H22 = assay: Liver cancer H22 in mice, tumor volume (Example 7); format: in vivo, BALB/c mice; details: 18 days after tumor inoculation; once a week; PEG-mIFN-α4 1.0 μg/w sc, gemcitabine 60 mg/kg/w ip
Procedure: The average tumor volume for each individual group was calculated based on the formula V=1/2ab^2 (a and b represent length and width (mm) respectively) by measuring the tumor diameter, and the anti-tumor effect was observed dynamically.
Statistical tests were all two-sided tests.

melanoma B16 = assay: Melanoma B16 in mice, tumor volume (Example 10); format: in vivo, C57BL/6N mice; details: 14 days after tumor inoculation; once a week; PEG-mIFN-α4 1.0 μg/w sc, gemcitabine 60 mg/kg/w ip
Description: (§1) The anticancer agent was gemcitabine (Jiangsu Hansoh Pharmaceutical Group Co., Ltd). […] Statistical tests were all two-sided tests.

[1] = system: transplanted liver cancer H22; assay: Transplanted liver cancer H22 in mice, survival, gemcitabine combination (Example 11); format: in vivo, BALB/c mice; details: gemcitabine 60 mg/kg ip once a week
Procedure: After being divided into groups, the corresponding drugs or saline were administered. […] With respect to the intermittent administration, it was administered once every 48 hours, for three times continuously, before discontinuation of 144 hours. Gemcitabine was administered by intraperitoneal injection at a dose of 60 mg per kilogram of body weight each time, once a week. The normal saline control group was given an equal volume of normal saline. The PEG-mIFN-α4 intermittent administration combined with gemcitabine group was given gemcitabine during the first injection of PEG-mIFN-α4, and then administered with gemcitabine once a week thereafter. All groups were subjected to survival analysis to compare differences between groups.

colorectal cancer CT26 = assay: Colorectal cancer CT26 in mice, tumor volume (Example 9); format: in vivo, BALB/c mice; details: day 43; once a week; PEG-mIFN-α4 1.0 μg/w sc, gemcitabine 60 mg/kg/w ip
Description: as §1

lung cancer LLC = assay: Lung cancer LLC in mice, tumor volume (Example 8); format: in vivo, C57BL/6N mice; details: 24 days after tumor inoculation; once a week; PEG-mIFN-α4 1.0 μg/w sc, gemcitabine 60 mg/kg/w ip
Description: as §1

[2] = system: mouse fibroblast/encephalomyocarditis virus (L929/EMCV); assay: Mouse fibroblast/encephalomyocarditis virus (L929/EMCV) cytopathic inhibition method; format: cell-based; details: commercial mIFN-α4 (R&D) as the standard
Procedure: (§2) The bacterial endotoxin content of the deglycosylated mIFN-α4 stock solution was determined by the Limulus reagent method as lower than 60 EU/mg. specific activity was determined as 5.4×10^8 U/mg by using the commercial mIFN-α4 (R&D, catalog number 12115-1) as the standard, and by using the mouse fibroblast/encephalomyocarditis virus (L929/EMCV) cytopathic inhibition method.
as §2, with “PEG-mIFN-α4” for “deglycosylated mIFN-α4”, “15” for “60”, “Specific” for “specific”, “6.1×10^6” for “5.4×10^8”

[3] = set-up: species or system BALB/c mice; details: mouse, in vivo, sc
Procedure: In this example, BALB/c mice were purchased from Beijing Vital River Laboratory Animal Technology Co., Ltd. The blood concentration of PEG-mIFN-α4 was detected by double-antibody sandwich ELISA.
6-8 weeks old, SPF grade BALB/c mice (N=60, with fifty-fifty of male and female mice) were injected with a single injection of 1 μg/mouse PEG-mIFN-α4 subcutaneously on the back of the neck. Plasma samples were collected before the injection (0 h) and after the injection at 15 h, 24 h, 36 h, 48 h, 72 h, 96 h, 120 h, 168 h, 216 h, 264 h, 312 h, to determine the blood concentration. Phoenix WinNonlin 6.4 software was used to calculate the pharmacokinetic parameters.

[4] = system: transplanted liver cancer H22; assay: Continuous vs intermittent administration, transplanted liver cancer H22 in mice, survival (Example 6); format: in vivo, BALB/c mice

Molecule	Mean tumor volume (Standard deviation) (liver cancer H22)	Mean tumor volume (Standard deviation) (melanoma B16)	mortality rate ([1]; by day 41, PEG-mIFN-α4 1 microgram per mouse intermittent) [%]	Median survival period (Time after tumor inoculation, days) [1] [days]	Mean tumor volume (Standard deviation) (colorectal cancer CT26)	Mean tumor volume (Standard deviation) (lung cancer LLC)	Specific activity [2]	Cl_F—obs [3] [mL/h]	T1/2 (elimination half-life) [3] [h]	Tmax (plasma concentration peak time) [3] [h]	Vz_F—obs [3] [mL]	Median survival period (Time after tumor inoculation, days) ([4]; continuous administration: 1 microgram per animal sc once every 48 hours, 21 times)	Survival rate during the observation period ([4]; intermittent administration: 1 microgram per animal sc once every 48 hours for 3 times, suspended 144 hours, 4 rounds, Day 40 after tumor inoculation)
Nc1ccn([C@@H]2O[C@H](CO)[C@@H](O)C2(F)F)c(=O)n1 [Gemcitabine, reference compound]	1619.3 (911.2) mm^3	2279.9 (807.6) mm^3	73.1	21.5	1558.2 (2225.2) mm^3	1466.6 (791.5) mm^3							
B1							5.4×10^8 U/mg						
B2	846.2 (592.0) mm^3	1639.7 (979.5) mm^3			5283.7 (5030.5) mm^3	4000.8 (2513.7) mm^3	6.1×10^6 U/mg	0.07	28.3	24	2.91	38 days and 38.0 days	93.3% and 93.3%.
